Source: paper PMC3871807, “Analysis of rice ER-resident J-proteins reveals diversity and functional differentiation of the ER-resident Hsp70 system in plants” (Journal of Experimental Botany, 2013)
Each block holds one binder with its values, some of them ahead of it.

How the values were obtained:
Assay in all cases: co-IP; J-protein-3xFLAG and OsBiP-2HA-6His co-transfected into rice Oc cell protoplasts, overnight at 28 °C; extract in 50 mM TRIS-HCl pH 7.5, 150 mM NaCl, 0.5% Triton X-100; anti-FLAG M2 magnetic beads 2 h at 4 °C; washed with NET buffer (0.1% NP-40); blots with anti-FLAG-HRP and anti-HA-HRP; recovery of BiP-HA over input, relative to BiP1-HA
Conditions in all cases: partners not purified
OsERdj3A-FLAG = biological target: T1, OsERdj3A-FLAG (rice (Oryza sativa), UniProt Q10MW6 26-582)
T1 construct: OsERdj3A, rice ER-resident J-protein (N-terminal J-domain followed by a thioredoxin-like region), encoded by Os03g0293000; also called Os03g0293000; source: protoplasts from rice Oc cells, transfected by electroporation, in extract; not shown: 3x FLAG, C-terminal, kept

OsERdj3B-FLAG = biological target: T2, OsERdj3B-FLAG (rice (Oryza sativa), UniProt B9FHF3 24-347)
T2 construct: OsERdj3B, rice ER-resident J-protein of 347 amino acid residues (N-terminal J-domain, zinc finger motif, DnaJ C-terminal domain), encoded by Os05g0156500; full-length coding region; also called Os05g0156500; source: protoplasts from rice Oc cells, transfected by electroporation, in extract; not shown: 3x FLAG, C-terminal, kept
T2 sequence (looked up): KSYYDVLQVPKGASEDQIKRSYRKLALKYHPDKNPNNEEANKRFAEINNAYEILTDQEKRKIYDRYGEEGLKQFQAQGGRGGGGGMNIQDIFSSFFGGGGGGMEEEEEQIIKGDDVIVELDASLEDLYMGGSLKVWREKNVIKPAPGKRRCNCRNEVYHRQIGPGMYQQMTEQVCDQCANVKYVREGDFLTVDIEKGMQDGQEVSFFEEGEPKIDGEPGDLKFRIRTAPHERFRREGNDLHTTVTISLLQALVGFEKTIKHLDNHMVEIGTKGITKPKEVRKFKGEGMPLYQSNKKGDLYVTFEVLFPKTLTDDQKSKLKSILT

OsP58A-FLAG = biological target: T3, OsP58A-FLAG (rice (Oryza sativa), UniProt A0A0P0VG31 29-476)
T3 construct: OsP58A, rice ER-resident J-protein (P58IPK type: two TPR-like regions followed by a J-domain), encoded by Os02g0195300; full-length coding region; also called Os02g0195300; source: protoplasts from rice Oc cells, transfected by electroporation, in extract; not shown: 3x FLAG, C-terminal, kept
T3 sequence (looked up): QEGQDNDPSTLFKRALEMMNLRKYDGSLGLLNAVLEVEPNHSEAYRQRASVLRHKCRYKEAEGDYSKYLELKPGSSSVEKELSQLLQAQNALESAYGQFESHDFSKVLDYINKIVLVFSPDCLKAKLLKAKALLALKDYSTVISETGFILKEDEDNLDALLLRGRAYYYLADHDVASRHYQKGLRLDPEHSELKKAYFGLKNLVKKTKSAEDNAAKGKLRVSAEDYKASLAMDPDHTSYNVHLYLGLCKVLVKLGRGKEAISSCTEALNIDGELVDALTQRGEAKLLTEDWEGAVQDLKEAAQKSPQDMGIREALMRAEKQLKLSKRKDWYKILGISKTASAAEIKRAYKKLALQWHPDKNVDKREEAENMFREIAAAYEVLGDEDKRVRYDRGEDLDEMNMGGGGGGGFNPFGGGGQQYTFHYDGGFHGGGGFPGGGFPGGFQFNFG

T1 sequence (Q10MW6 26-582): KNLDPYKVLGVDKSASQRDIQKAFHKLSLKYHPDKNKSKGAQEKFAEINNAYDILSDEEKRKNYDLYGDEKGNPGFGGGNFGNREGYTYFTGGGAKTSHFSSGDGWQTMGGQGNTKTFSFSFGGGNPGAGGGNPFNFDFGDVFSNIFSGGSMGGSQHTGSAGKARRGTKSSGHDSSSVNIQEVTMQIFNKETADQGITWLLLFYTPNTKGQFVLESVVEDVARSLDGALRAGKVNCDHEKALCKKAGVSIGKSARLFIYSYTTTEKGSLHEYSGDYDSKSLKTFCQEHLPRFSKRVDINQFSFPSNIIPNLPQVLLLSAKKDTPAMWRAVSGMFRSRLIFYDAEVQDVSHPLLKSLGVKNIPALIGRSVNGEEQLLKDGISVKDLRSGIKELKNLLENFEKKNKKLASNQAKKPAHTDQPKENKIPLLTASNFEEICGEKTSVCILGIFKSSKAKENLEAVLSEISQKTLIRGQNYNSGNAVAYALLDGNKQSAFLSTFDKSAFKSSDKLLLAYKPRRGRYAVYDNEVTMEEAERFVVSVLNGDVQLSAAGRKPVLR

fold higher level than OsBiP1-HA (recovery in co-IP) (OsERdj3A-FLAG): 4 fold
B1: OsBiP5-HA (natural protein)
chain: not shown
notes: full-length cDNA; The coding region was inserted into the Pro35S-ShΔ:2HA-6His vector; source: protoplasts from rice Oc cells, transfected by electroporation, in extract; not shown: 2x HA, C-terminal, kept; His6, C-terminal, kept

fold higher affinity than OsBiP3-HA (recovery in co-IP) (OsERdj3B-FLAG): ~2 fold
fold higher affinity than OsBiP5-HA (recovery in co-IP) (OsERdj3B-FLAG): ~3 fold
fold higher affinity than OsBiP3-HA (recovery in co-IP) (OsP58A-FLAG): 4 fold
B2: OsBiP1-HA (natural protein)
chain: not shown
notes: as for B1
